As a reminder, the EC50 is the midpoint of the concentration-response curve.

From patent US20260070974A1 (NONA BIOSCIENCES SUZHOU, published 2026) come the findings set out here.

Where “and” joins values, the source holds several entries; their conditions need not be identical. Identical values can stand only once.

Assay [1] deals with T1, human Siglec-15 ECD-his protein (Acrobiosystems, Cat #: SG5-H52H3) (human, UniProt Q6ZMC9 20-263).
T1 construct: Bought protein; only its extracellular domain stood in the assay; also called human Siglec-15 protein; recombinant human Siglec-15 protein; not shown: his tag
T1 sequence: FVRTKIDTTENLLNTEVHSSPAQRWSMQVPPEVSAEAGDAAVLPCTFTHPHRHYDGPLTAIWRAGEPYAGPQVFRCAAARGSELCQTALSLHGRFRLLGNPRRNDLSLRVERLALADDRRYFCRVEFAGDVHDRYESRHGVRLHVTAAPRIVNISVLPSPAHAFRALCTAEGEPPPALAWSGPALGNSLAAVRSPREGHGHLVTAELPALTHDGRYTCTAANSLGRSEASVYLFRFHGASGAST
The assay can be described thus: ELISA, coated human Siglec-15 ECD-his. As to the method:
[…] human Siglec-15 ECD-his protein (Acrobiosystems, Cat #: SG5-H52H3) dissolved in PBS was added to an ELISA plate at 100 μL/well for coating and the plate was incubated overnight at 4° C. The ELISA plate was then blocked with PBST (PBS+0.05% Tween 20) containing 2% BSA at 200 μL/well and incubated at 37° C. for 1 h. The ELISA plate was washed 4 times with PBST. The anti-Siglec-15 antibody diluted in a gradient (5-fold dilution, starting concentration: 6.67 nM) was added to the ELISA plate at 100 μL/well and the plate was incubated at 37° C. for 1 h. The ELISA plate was washed 4 times with PBST. The goat anti-human IgG (H+L)-HRP (1:5000, Jackson, Cat #: 109-035-088) was added at 100 μL/well and the plate was incubated at 37° C. for 1 h. The ELISA plate was washed 4 times with PBST. The TMB substrate (Biopanda, Cat #: TMB-S-003) was added at 100 μL/well, and the plate was incubated at room temperature for 5 min, and then the stop buffer (Solarbio, Cat #: C1058) was added at 100 μL/well to stop the reaction.
Background: An ELISA detects its analyte on a solid surface through an enzyme-linked reagent.

Assay [2] concerns the target T2, human Siglec-2-his protein (Acrobiosystems, Cat CD2-H52H8) (human, UniProt P20273 20-687).
T2 construct: Bought protein; not shown: his tag
T2 sequence (looked up): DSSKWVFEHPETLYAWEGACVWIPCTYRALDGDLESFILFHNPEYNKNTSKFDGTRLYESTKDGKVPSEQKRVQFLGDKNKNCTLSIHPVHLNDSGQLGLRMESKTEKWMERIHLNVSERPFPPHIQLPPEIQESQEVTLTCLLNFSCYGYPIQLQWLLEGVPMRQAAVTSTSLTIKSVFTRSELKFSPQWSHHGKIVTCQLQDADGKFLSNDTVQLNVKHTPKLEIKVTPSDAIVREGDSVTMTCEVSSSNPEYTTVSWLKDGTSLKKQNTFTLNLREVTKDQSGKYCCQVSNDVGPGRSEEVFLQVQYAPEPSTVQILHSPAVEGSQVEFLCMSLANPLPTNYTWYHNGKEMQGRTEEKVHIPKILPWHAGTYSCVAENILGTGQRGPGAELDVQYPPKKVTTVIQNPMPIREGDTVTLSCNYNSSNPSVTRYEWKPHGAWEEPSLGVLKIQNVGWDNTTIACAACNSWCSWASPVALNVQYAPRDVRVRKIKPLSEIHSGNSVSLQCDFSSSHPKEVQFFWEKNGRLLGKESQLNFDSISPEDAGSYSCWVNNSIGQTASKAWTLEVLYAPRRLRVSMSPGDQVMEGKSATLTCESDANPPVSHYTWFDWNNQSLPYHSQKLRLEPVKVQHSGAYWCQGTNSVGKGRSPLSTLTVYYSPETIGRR
The assay can be described thus: ELISA on coated human Siglec-2-his, antibody at 100 nM and 10 nM, goat anti-human IgG-HRP, OD450. On the procedure:
(§1) Human Siglec-15 ECD-his protein (Acrobiosystems, Cat SG5-H52H3), human Siglec-2-his protein (Acrobiosystems, Cat CD2-H52H8), human Siglec-4a-his protein (Acrobiosystems, Cat MAG-H52H8), human Siglec-3-his protein (Acrobiosystems, Cat CD3-H5226), human Siglec-10-his protein (Acrobiosystems, Cat SIO-H52H9), and human PD-L1/B7-H1-his protein (Acrobiosystems, Cat PD1-H5229), each at 1 μg/mL and dissolved in PBS, were each added to an ELISA plate at 100 μL/well for coating and the plate was incubated overnight at 4° C. The ELISA plate was then blocked with PBST (PBS+0.05% Tween 20) containing 2% BSA at 200 μL/well and incubated at 37° C. for 1 h. The ELISA plate was washed 4 times with PBST. The anti-Siglec-15 antibody diluted in a gradient (concentrations: 100 nM and 10 nM) was added to the ELISA plate at 100 μL/well and the plate was incubated at 37° C. for 1 h. The ELISA plate was washed 4 times with PBST. The goat anti-human IgG (H+L)-HRP (1:5000, Jackson, Cat 109-035-088) was added at 100 μL/well and the plate was incubated at 37° C. for 1 h. The ELISA plate was washed 4 times with PBST. The TMB substrate (Biopanda, Cat TMB-S-003) was added at 100 μL/well, and the plate was incubated at room temperature for 5 min, and then the stop buffer (Solarbio, Cat #: C1058) was added at 100 μL/well to stop the reaction.

The target of assay [3] is T3, human Siglec-10-his protein (Acrobiosystems, Cat SIO-H52H9) (human, UniProt Q96LC7 17-546, limits assumed).
T3 construct: Bought protein; not shown: his tag
T3 sequence (looked up): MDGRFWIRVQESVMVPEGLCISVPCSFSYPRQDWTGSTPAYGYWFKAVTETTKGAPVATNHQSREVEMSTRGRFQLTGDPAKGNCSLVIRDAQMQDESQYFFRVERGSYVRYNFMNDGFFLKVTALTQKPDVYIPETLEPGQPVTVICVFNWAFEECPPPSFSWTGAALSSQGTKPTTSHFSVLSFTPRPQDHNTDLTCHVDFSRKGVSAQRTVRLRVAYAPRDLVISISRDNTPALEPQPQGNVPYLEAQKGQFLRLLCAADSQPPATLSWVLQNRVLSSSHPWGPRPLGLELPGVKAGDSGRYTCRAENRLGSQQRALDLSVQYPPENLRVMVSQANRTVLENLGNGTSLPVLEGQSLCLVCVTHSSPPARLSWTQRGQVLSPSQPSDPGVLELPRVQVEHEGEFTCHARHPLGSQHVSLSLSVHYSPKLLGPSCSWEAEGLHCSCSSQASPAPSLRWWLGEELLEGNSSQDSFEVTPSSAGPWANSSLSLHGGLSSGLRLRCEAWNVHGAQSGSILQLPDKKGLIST
The assay can be described thus: ELISA on coated human Siglec-10-his, antibody at 100 nM and 10 nM, goat anti-human IgG-HRP, OD450. As to the method:
as §1

B1: PR301285 (antibody, human IgG1, kappa, V domains shown)
VH: QVQLQESGPGLVKPSETLSLTCTVSGGSMISYYWSWLRQPPGKGLEWIGYIYYSGNTNYNPSLKSRITIAVDTSKNQFSLKLNSVTAADTAVYYCARERELHPYYFDYWGQGTLVTVSS
VL: DIQLTQSPSFLSASVGDRVTITCRASQGIDNYLAWYQQKPGKAPKVLIYAASTLQSGVPSRFSGSGSGTEFTLTISSLQPEDFATYYCQQLNSYPLTFGGGTKVEIKR
Take B1: the EC50 in assay [1] amounted to 0.031 nM. Moreover, the binding result in assay [2] and in assay [3] was “no binding (tested: 100 nM)” throughout.

B2: PR301289 (antibody, human IgG1, kappa, V domains shown)
VH: QVQLVQSGAEVKKPGASVKVSCRASGYTFTSYDINWVRQATGQGLEWMGWMNPHSGDTGYAQNFQGRVTMTWNTSISTAYMELSSLRSEDTAVYYCARRRVGVYYYGMDVWGQGTTVTVSS
VL: ENVLTQSPGTLSLSPGERATLSCRASQSVSSSYFGWYQQKPGQAPRLLIYGASSRATGIPDRFSGSGSGTDFTLTISRLEPEDFAVYYCQQYGSSPITFGQGTRLEIKR
notes: Parent of the PTM variants PR301289-1 and -2
Turning to B2, the EC50 in assay [1] is 0.027 nM and 0.058 nM. Further, the binding result in assay [2] and in assay [3] was “no binding (tested: 100 nM)” in each case.

B3: PR301286 (antibody, human IgG1, kappa, V domains shown)
VH: QVQLVESGGGVVQPGKSLRLSCAASGFTFSSYGMHWVRQAPGKGLEWVAVIWIDGSNRYYAASVKGRFTISRDNSKNTLYLQMNSLRAEDTAVYYCTRGYGDYAYVMDVWGQGASVTVSS
VL: DIVMTQSPLSLPVTPGEPASISCRSSQSLLPGNGYNYLDWYLQKPGQSPQLLIYLGSNRASGVPDRFSGSGSGTDFTLKISRVEAEDVGIYYCMQALQSPLTFGGGTKVEIKR
notes: Parent of the PTM variants PR301286-1, -3, -5, -6, -7
B3: the EC50 in assay [1] was 0.027 nM and 0.018 nM and 0.022 nM. Further, the binding result in assay [2] and in assay [3] was “no binding (tested: 100 nM)” in each case.

B4: PR300066 (Tab) (antibody, human IgG1, kappa, V domains shown)
VH: QVQLQQPGAELVKPGASVKMSCKASGYTFTSYWITWVIQRPGQGLEWIGDIYCGSDTMHYNEKFKNKATLTVDTSSSTAYMQLSSLTSEDSAVYYCARWWDYGSSYDYFDYWGQGTTLTVSS
VL: DIKMTQSPSSMYASLGERVTITCKASQDINSYLSWFQQKPGKSPKTLIYRANRLVDGVPSRFSGSGSGQDYSLTISSLEYEDMGIYYCLQYDEFPYTFGGGTKLEIKR
notes: variable region from clone 5G12 of WO 2018/057735A1, on human IgG1/kappa constant regions; also called 5G12
Take B4: the EC50 in assay [1] was 0.022 nM and 0.021 nM and 0.012 nM. The binding result in assay [2] and in assay [3] was “no binding (tested: 100 nM)” throughout.
